Measurements taken from patent US9957297B2, “Template-fixed peptidomimetics as inhibitors of FPR1” (POLYPHOR AG, priority 2011, dated 2018).
Bridges are numbered along the chain shown (N, C = ends). [ ]: non-standard residue; d: D form. dTic = O=C(O)[C@H]1Cc2ccccc2CN1; hSer = N[C@@H](CCO)C(=O)O; Orn = NCCC[C@H](N)C(=O)O; Dab = NCC[C@H](N)C(=O)O

T1: Formyl-Peptide Receptor 1 (UniProt P21462 1-350, limits assumed)
T1 sequence (looked up): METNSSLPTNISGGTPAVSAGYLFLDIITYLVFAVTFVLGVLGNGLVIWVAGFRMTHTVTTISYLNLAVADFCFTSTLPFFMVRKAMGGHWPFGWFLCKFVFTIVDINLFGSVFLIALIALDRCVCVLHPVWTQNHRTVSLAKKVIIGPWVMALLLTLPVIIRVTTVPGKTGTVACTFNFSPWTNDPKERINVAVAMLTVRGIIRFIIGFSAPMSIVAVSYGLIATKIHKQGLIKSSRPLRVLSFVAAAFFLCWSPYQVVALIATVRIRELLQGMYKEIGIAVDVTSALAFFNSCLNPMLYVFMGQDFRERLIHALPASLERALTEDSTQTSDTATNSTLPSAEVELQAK

B1: cyclo(-Tyr-His-Orn-Cys-His-Gly-^DPro-Trp-Thr-Ile-Cys-Tyr-Glu-Lys-^DPro-Pro-) (peptide)
peptide: cyclo(YH[Orn]CHG[dP]WTICYEK[dP]P)
modifications: disulfide 4-11
B2: cyclo(-Asp-His-Lys-Cys-His-Gly-^DPro-Trp-Thr-Ile-Cys-Tyr-Glu-Lys-^DPro-Pro-) (peptide)
peptide: cyclo(DHKCHG[dP]WTICYEK[dP]P)
modifications: disulfide 4-11
SMILES: CC[C@H](C)[C@@H]1NC(=O)[C@H]([C@@H](C)O)NC(=O)[C@H](Cc2c[nH]c3ccccc23)NC(=O)[C@H]2CCCN2C(=O)CNC(=O)[C@H](Cc2c[nH]cn2)NC(=O)[C@@H]2CSSC[C@H](NC1=O)C(=O)N[C@@H](Cc1ccc(O)cc1)C(=O)N[C@@H](CCC(=O)O)C(=O)N[C@@H](CCCCN)C(=O)N1CCC[C@@H]1C(=O)N1CCC[C@H]1C(=O)N[C@@H](CC(=O)O)C(=O)N[C@@H](Cc1c[nH]cn1)C(=O)N[C@@H](CCCCN)C(=O)N2
B3: cyclo(-Tyr-His-Lys-Cys-His-Gly-^DPro-Trp-Thr-Ile-Cys-Tyr-Trp-Lys-^DPro-Pro-) (peptide)
peptide: cyclo(YHKCHG[dP]WTICYWK[dP]P)
modifications: disulfide 4-11
SMILES: CC[C@H](C)[C@@H]1NC(=O)[C@H]([C@@H](C)O)NC(=O)[C@H](Cc2c[nH]c3ccccc23)NC(=O)[C@H]2CCCN2C(=O)CNC(=O)[C@H](Cc2c[nH]cn2)NC(=O)[C@@H]2CSSC[C@H](NC1=O)C(=O)N[C@@H](Cc1ccc(O)cc1)C(=O)N[C@@H](Cc1c[nH]c3ccccc13)C(=O)N[C@@H](CCCCN)C(=O)N1CCC[C@@H]1C(=O)N1CCC[C@H]1C(=O)N[C@@H](Cc1ccc(O)cc1)C(=O)N[C@@H](Cc1c[nH]cn1)C(=O)N[C@@H](CCCCN)C(=O)N2
B4: cyclo(-Tyr-His-Lys-Cys-His-Gly-^DTic-Trp-Thr-Ile-Cys-Tyr-Glu-Lys-^DPro-Pro-) (peptide)
peptide: cyclo(YHKCHG[dTic]WTICYEK[dP]P)
modifications: disulfide 4-11
SMILES: CC[C@H](C)[C@@H]1NC(=O)[C@H]([C@@H](C)O)NC(=O)[C@H](Cc2c[nH]c3ccccc23)NC(=O)[C@H]2Cc3ccccc3CN2C(=O)CNC(=O)[C@H](Cc2c[nH]cn2)NC(=O)[C@@H]2CSSC[C@H](NC1=O)C(=O)N[C@@H](Cc1ccc(O)cc1)C(=O)N[C@@H](CCC(=O)O)C(=O)N[C@@H](CCCCN)C(=O)N1CCC[C@@H]1C(=O)N1CCC[C@H]1C(=O)N[C@@H](Cc1ccc(O)cc1)C(=O)N[C@@H](Cc1c[nH]cn1)C(=O)N[C@@H](CCCCN)C(=O)N2
B5: cyclo(-Tyr-His-Lys-Cys-His-Gly-^DPro-Trp-Thr-Ile-Cys-Tyr-Glu-His-^DPro-Pro-) (peptide)
peptide: cyclo(YHKCHG[dP]WTICYEH[dP]P)
modifications: disulfide 4-11
SMILES: CC[C@H](C)[C@@H]1NC(=O)[C@H]([C@@H](C)O)NC(=O)[C@H](Cc2c[nH]c3ccccc23)NC(=O)[C@H]2CCCN2C(=O)CNC(=O)[C@H](Cc2c[nH]cn2)NC(=O)[C@@H]2CSSC[C@H](NC1=O)C(=O)N[C@@H](Cc1ccc(O)cc1)C(=O)N[C@@H](CCC(=O)O)C(=O)N[C@@H](Cc1c[nH]cn1)C(=O)N1CCC[C@@H]1C(=O)N1CCC[C@H]1C(=O)N[C@@H](Cc1ccc(O)cc1)C(=O)N[C@@H](Cc1c[nH]cn1)C(=O)N[C@@H](CCCCN)C(=O)N2
B6: cyclo(-Tyr-His-Lys-Cys-His-Gly-^DPro-Trp-Thr-Ile-Cys-Tyr-Glu-Lys-^DPro-Pro-) (peptide)
peptide: cyclo(YHKCHG[dP]WTICYEK[dP]P)
modifications: disulfide 4-11
B7: cyclo(-Tyr-His-Lys-Cys-His-Gly-^DPro-Trp-Thr-Ile-Cys-Tyr-Glu-Gly-^DPro-Pro-) (peptide)
peptide: cyclo(YHKCHG[dP]WTICYEG[dP]P)
modifications: disulfide 4-11
SMILES: CC[C@H](C)[C@@H]1NC(=O)[C@H]([C@@H](C)O)NC(=O)[C@H](Cc2c[nH]c3ccccc23)NC(=O)[C@H]2CCCN2C(=O)CNC(=O)[C@H](Cc2c[nH]cn2)NC(=O)[C@@H]2CSSC[C@H](NC1=O)C(=O)N[C@@H](Cc1ccc(O)cc1)C(=O)N[C@@H](CCC(=O)O)C(=O)NCC(=O)N1CCC[C@@H]1C(=O)N1CCC[C@H]1C(=O)N[C@@H](Cc1ccc(O)cc1)C(=O)N[C@@H](Cc1c[nH]cn1)C(=O)N[C@@H](CCCCN)C(=O)N2
B8: cyclo(-Tyr-His-Lys-Cys-His-Gly-^DPro-Trp-Thr-Ile-Cys-Tyr-Glu-Lys-^DAla-Glu-) (peptide)
peptide: cyclo(YHKCHG[dP]WTICYEK[dA]E)
modifications: disulfide 4-11
SMILES: CC[C@H](C)[C@@H]1NC(=O)[C@H]([C@@H](C)O)NC(=O)[C@H](Cc2c[nH]c3ccccc23)NC(=O)[C@H]2CCCN2C(=O)CNC(=O)[C@H](Cc2c[nH]cn2)NC(=O)[C@@H]2CSSC[C@H](NC1=O)C(=O)N[C@@H](Cc1ccc(O)cc1)C(=O)N[C@@H](CCC(=O)O)C(=O)N[C@@H](CCCCN)C(=O)N[C@H](C)C(=O)N[C@@H](CCC(=O)O)C(=O)N[C@@H](Cc1ccc(O)cc1)C(=O)N[C@@H](Cc1c[nH]cn1)C(=O)N[C@@H](CCCCN)C(=O)N2
B9: cyclo(-Tyr-His-Lys-Cys-His-Gly-^DPro-Trp-Thr-Ile-Cys-Tyr-Glu-Trp-^DPro-Pro-) (peptide)
peptide: cyclo(YHKCHG[dP]WTICYEW[dP]P)
modifications: disulfide 4-11
SMILES: CC[C@H](C)[C@@H]1NC(=O)[C@H]([C@@H](C)O)NC(=O)[C@H](Cc2c[nH]c3ccccc23)NC(=O)[C@H]2CCCN2C(=O)CNC(=O)[C@H](Cc2c[nH]cn2)NC(=O)[C@@H]2CSSC[C@H](NC1=O)C(=O)N[C@@H](Cc1ccc(O)cc1)C(=O)N[C@@H](CCC(=O)O)C(=O)N[C@@H](Cc1c[nH]c3ccccc13)C(=O)N1CCC[C@@H]1C(=O)N1CCC[C@H]1C(=O)N[C@@H](Cc1ccc(O)cc1)C(=O)N[C@@H](Cc1c[nH]cn1)C(=O)N[C@@H](CCCCN)C(=O)N2
B10: cyclo(-Tyr-His-Lys-Cys-His-Gly-^DPro-Trp-Thr-Ile-Cys-Tyr-Asp-Lys-^DPro-Pro-) (peptide)
peptide: cyclo(YHKCHG[dP]WTICYDK[dP]P)
modifications: disulfide 4-11
SMILES: CC[C@H](C)[C@@H]1NC(=O)[C@H]([C@@H](C)O)NC(=O)[C@H](Cc2c[nH]c3ccccc23)NC(=O)[C@H]2CCCN2C(=O)CNC(=O)[C@H](Cc2c[nH]cn2)NC(=O)[C@@H]2CSSC[C@H](NC1=O)C(=O)N[C@@H](Cc1ccc(O)cc1)C(=O)N[C@@H](CC(=O)O)C(=O)N[C@@H](CCCCN)C(=O)N1CCC[C@@H]1C(=O)N1CCC[C@H]1C(=O)N[C@@H](Cc1ccc(O)cc1)C(=O)N[C@@H](Cc1c[nH]cn1)C(=O)N[C@@H](CCCCN)C(=O)N2
B11: cyclo(-Tyr-His-Lys-Cys-His-Gly-^DPro-Trp-Thr-Ile-Cys-Tyr-Glu-Glu-^DPro-Pro-) (peptide)
peptide: cyclo(YHKCHG[dP]WTICYEE[dP]P)
modifications: disulfide 4-11
SMILES: CC[C@H](C)[C@@H]1NC(=O)[C@H]([C@@H](C)O)NC(=O)[C@H](Cc2c[nH]c3ccccc23)NC(=O)[C@H]2CCCN2C(=O)CNC(=O)[C@H](Cc2c[nH]cn2)NC(=O)[C@@H]2CSSC[C@H](NC1=O)C(=O)N[C@@H](Cc1ccc(O)cc1)C(=O)N[C@@H](CCC(=O)O)C(=O)N[C@@H](CCC(=O)O)C(=O)N1CCC[C@@H]1C(=O)N1CCC[C@H]1C(=O)N[C@@H](Cc1ccc(O)cc1)C(=O)N[C@@H](Cc1c[nH]cn1)C(=O)N[C@@H](CCCCN)C(=O)N2
B12: cyclo(-Tyr-His-Lys-Cys-His-Gly-^DPro-Trp-Thr-Ile-Cys-Tyr-Glu-Hse-^DPro-Pro-) (peptide)
peptide: cyclo(YHKCHG[dP]WTICYE[hSer][dP]P)
modifications: disulfide 4-11
SMILES: CC[C@H](C)[C@@H]1NC(=O)[C@H]([C@@H](C)O)NC(=O)[C@H](Cc2c[nH]c3ccccc23)NC(=O)[C@H]2CCCN2C(=O)CNC(=O)[C@H](Cc2c[nH]cn2)NC(=O)[C@@H]2CSSC[C@H](NC1=O)C(=O)N[C@@H](Cc1ccc(O)cc1)C(=O)N[C@@H](CCC(=O)O)C(=O)N[C@@H](CCO)C(=O)N1CCC[C@@H]1C(=O)N1CCC[C@H]1C(=O)N[C@@H](Cc1ccc(O)cc1)C(=O)N[C@@H](Cc1c[nH]cn1)C(=O)N[C@@H](CCCCN)C(=O)N2
B13: cyclo(-Tyr-His-Lys-Cys-His-Gly-^DPro-Trp-Thr-Ile-Cys-Tyr-Glu-Thr-^DPro-Pro-) (peptide)
peptide: cyclo(YHKCHG[dP]WTICYET[dP]P)
modifications: disulfide 4-11
SMILES: CC[C@H](C)[C@@H]1NC(=O)[C@H]([C@@H](C)O)NC(=O)[C@H](Cc2c[nH]c3ccccc23)NC(=O)[C@H]2CCCN2C(=O)CNC(=O)[C@H](Cc2c[nH]cn2)NC(=O)[C@@H]2CSSC[C@H](NC1=O)C(=O)N[C@@H](Cc1ccc(O)cc1)C(=O)N[C@@H](CCC(=O)O)C(=O)N[C@@H]([C@@H](C)O)C(=O)N1CCC[C@@H]1C(=O)N1CCC[C@H]1C(=O)N[C@@H](Cc1ccc(O)cc1)C(=O)N[C@@H](Cc1c[nH]cn1)C(=O)N[C@@H](CCCCN)C(=O)N2
B14: cyclo(-Gly-His-Lys-Cys-His-Gly-^DPro-Trp-Thr-Ile-Cys-Tyr-Glu-Lys-^DPro-Pro-) (peptide)
peptide: cyclo(GHKCHG[dP]WTICYEK[dP]P)
modifications: disulfide 4-11
SMILES: CC[C@H](C)[C@@H]1NC(=O)[C@H]([C@@H](C)O)NC(=O)[C@H](Cc2c[nH]c3ccccc23)NC(=O)[C@H]2CCCN2C(=O)CNC(=O)[C@H](Cc2c[nH]cn2)NC(=O)[C@@H]2CSSC[C@H](NC1=O)C(=O)N[C@@H](Cc1ccc(O)cc1)C(=O)N[C@@H](CCC(=O)O)C(=O)N[C@@H](CCCCN)C(=O)N1CCC[C@@H]1C(=O)N1CCC[C@H]1C(=O)NCC(=O)N[C@@H](Cc1c[nH]cn1)C(=O)N[C@@H](CCCCN)C(=O)N2
B15: cyclo(-Tyr-His-Lys-Cys-His-Gly-^DPro-Trp-Thr-Ile-Cys-Tyr-Glu-Dab-^DPro-Pro-) (peptide)
peptide: cyclo(YHKCHG[dP]WTICYE[Dab][dP]P)
modifications: disulfide 4-11
SMILES: CC[C@H](C)[C@@H]1NC(=O)[C@H]([C@@H](C)O)NC(=O)[C@H](Cc2c[nH]c3ccccc23)NC(=O)[C@H]2CCCN2C(=O)CNC(=O)[C@H](Cc2c[nH]cn2)NC(=O)[C@@H]2CSSC[C@H](NC1=O)C(=O)N[C@@H](Cc1ccc(O)cc1)C(=O)N[C@@H](CCC(=O)O)C(=O)N[C@@H](CCN)C(=O)N1CCC[C@@H]1C(=O)N1CCC[C@H]1C(=O)N[C@@H](Cc1ccc(O)cc1)C(=O)N[C@@H](Cc1c[nH]cn1)C(=O)N[C@@H](CCCCN)C(=O)N2

target: T1, Formyl-Peptide Receptor 1; assay: cell-based or functional assay

β-Arrestin IC50 [nM]	Binder
313	B1
177	B2
15	B3
21	B4
73	B5
44	B6
250	B7
124	B8
16	B9
37	B10
57	B11
24	B12
197	B13
111	B14
82	B15
